# According to patent US20240166738A1 (priority 2021, published 2024):
# Target: GST-TMEM106B (truncated, comprising amino acids 122-210 of SEQ ID NO:1) (Homo sapiens, UniProt Q9NUM4)
# Experiment: Pre-mix epitope binning of anti-TMEM106B antibodies (Carterra / Lake Pharma)
# Type: binding
# Parameters: key to epitope bin: Bin 1: competes for binding to the same or overlapping TMEM106B region as the TM1, TM17, TM22, TM26, TM79, and/or TM82 antibodies; Bin 2: competes for binding to the same or overlapping TMEM106B region as the TM3, TM9, TM10, TM11, TM12, TM13, TM18, TM19, TM21, TM24, TM25, TM32, TM35, TM37, TM42, TM45, TM48, TM54, TM59, TM60, TM61, and/or TM76 antibodies; Bin 3: competes for binding to the same or overlapping TMEM106B region as the TM7, TM15, TM83, and/or TM84 antibodies; Bin 4: competes for binding to the same or overlapping TMEM106B region as the TMS, TM28, TM29, TM30, TM63, TM64, TM72, TM78, TM80, TM86, and/or TM88 antibodies; Bin 5: does not bind to a truncated TMEM106B comprising amino acids 122-210 of SEQ ID NO:1
# Details: for epitope bin: competition for binding to truncated GST-TMEM106B (amino acids 122-210); for Binding Community/Bin: epitope bin number, pre-mix binning on truncated GST-TMEM106B
# Method: (§1) Monoclonal anti-TMEM106B antibodies were immobilized to a CMD 50M chip (Xantec # SPMXCMD5OM lot# SCCMD50M0416). The running buffer was HBS-EP+ with 1 mg/mL BSA. The GST-TMEM106B (truncated, comprising amino acids 122-210 of SEQ ID NO:1) antigen was prepared at a final concentration of 55 nM (corresponding to 2 μg/mL) and mixed with the competing analyte anti-TMEM106B antibodies at a final concentration of 333 nM (corresponding to 50 μg/mL) or compared to a buffer control. Samples were injected for 5 minutes over the array and regenerated after every cycle with 1 minute of two parts Pierce IgG-Elution buffer (ThermoFisher Cat#21004) and 1 part of 10 mM Glycine, pH 2.0 (Carterra).
# Anti-TMEM106B antibodies sorted into various competing bins and resulting binning profiles. […] Antibodies within Bin 3 or Bin 4 partially block Bin 2 antibodies.
# as §1, with “SPMXCMD50M” for “SPMXCMD5OM”, “lmg/ml” for “1 mg/mL”, “(truncated)” for “(truncated, comprising amino acids 122-210 of SEQ ID NO:1)”, “μg/ml)” for “μg/mL)”
# GST-TMEM106B (truncated, comprising amino acids 122-210 of SEQ ID NO:1), sequence (Q9NUM4 122-210): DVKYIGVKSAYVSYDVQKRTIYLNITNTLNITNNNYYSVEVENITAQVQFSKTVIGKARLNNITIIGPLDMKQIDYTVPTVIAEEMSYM
Molecule,epitope bin,Binding Community/Bin
"TM-61: anti-TMEM106B monoclonal antibody; VH SEQ ID NO: 467, VL SEQ ID NO: 503 (antibody, V domains shown, Variable Heavy Chain -- TM-61; Variable Light Chain -- TM-61) VH: QVQLQQSGAELAKPGASVKLSCKASGYTFTNYWMNWVKQRPGQGLEWIGYINPSSDYTKYNQNFKDKATLTADKSSSTAYMQLNSLTYEDSAVYYCTRWGGSRSYWYFDVWGAGTTVTVSS VL: DIVMTQSPSSLSASAGEKVTMSCKSSQSLLNSGNQKNYLAWYQQKPGQSPKLLIYGASTRESGVPDRFTGSGSGTDFTLTISSVQAEDLAVYYCQNDSNYPFTFGGGTKLEMK",Bin 2,2
"TM-7: anti-TMEM106B monoclonal antibody; CDR-H1-3 SEQ ID NO: 8, 41, 84; CDR-L1-3 SEQ ID NO: 126, 166, 190 (antibody, V domains shown) VH: EVQLQQSGPVLVKPGPPVKISCKASGFTFTDYYIHWVKLSHGKSLEWIGLVYPYNGDTDYNQKFKGKATLTVDTSSSTAYMELNSLTSEDSAVYYCARTYYANSPDYWGQGTTVTVSS VL: DIVMTQSPSSLSVSAGEKVTMSCKSSQSLLNSGNQRNYLAWYQQKPGQPPKLLIYGASTRESGVPDRFTGSGSGTDFTLTISNVQAEDLAVYYCQNDHSYPLTFGAGTKLELK",Bin 3,3
"TM-60: anti-TMEM106B monoclonal antibody; VH SEQ ID NO: 413, VL SEQ ID NO: 502 (antibody, V domains shown, Variable Heavy Chain -- TM-48, TM-60; Variable Light Chain -- TM-60) VH: QVQLQQSGPELVKPGASVKLSCKASGYTFTSYDINWVKQRPGQGLEWIGWIYPRDGNTQYIEKLKGKATLTVDTSSSTAYMELHSLTSEDSAVYFCARWIFYAMDYWGQGTSVTVSS VL: DVLMTQTPLSLPVSLGDQASISCRSSQSIVHGNGNTYLEWYLQKPGQSPKLLIYKVSNRFSGVPDRFSGSGSGTDFTLKISRVEAEDLGVYYCFQGSHLPYTFGGGTKLEIK",Bin 2,2
"TM-12: anti-TMEM106B monoclonal antibody; CDR-H1-3 SEQ ID NO: 13, 46, 89; CDR-L1-3 SEQ ID NO: 130, 169, 194 (antibody, V domains shown) VH: EVQLQQSGAELMRPGASVKLSCTASGFNIQDYYMYWVKQRPEQGLEWIGRIDPEDGDAEYAPKFQGKATMTADTSSNTAYLQLSSLTSEDTAVYYCSTRVIYDGYYRTMDCWGQGTSVTVSS VL: DVLMTQIPLSLPVSLGDQASISCRSSQTIVHSNGNTYLEWYLKKPGQSPKLLIDKISNRFSGVPDRFSGSGSGTDFTLKISRVEAEDLGVYYCFQGSHVPYTFGGGTKLEIK",Bin 2,2
"TM-19: anti-TMEM106B monoclonal antibody; CDR-H1-3 SEQ ID NO: 13, 53, 96; CDR-L1-3 SEQ ID NO: 136, 175, 200 (antibody, V domains shown) VH: DVQLQQSGAELVRPGASVKLSCTASGFNIKDYYMYWVKQRPEQGLEWIGRIDPEDGDTENAPKFRGMATMTADTSSNTAYLQLNSLTSEDTAVYYCTTRIGNLYHVMDYWGHGTSVTVSS VL: DVLMTQTPLSLPVSLGDQASISCRSSQSIVHSNGNTYLEWYLQKPGQAPKLLIDKVFNRFSGVPDRFSGSGSGTDFTLKISRVEAEDLGVYYCFQGSHVPFTFGSGTKLEIK",Bin 2,2
"TM-13: anti-TMEM106B monoclonal antibody; CDR-H1-3 SEQ ID NO: 14, 47, 90; CDR-L1-3 SEQ ID NO: 131, 171, 195 (antibody, V domains shown) VH: QVQLQQSGAELVKPGASVKMSCKASGYTFTTFPIEWMKQSHGKGLEWIGNFHPYNDDTKYNEKFKGKATLTVDKSSSTVYLDLSRLTSDDSAVYYCARYFYGGMDYWGQGTSVTVSS VL: DIQMTQSPASLSVSVGETVTITCRASENIYSSLGWYQQKQGESPQLLVFAATNLADGVPSRFSGSGSGTQYSLKINSLQSEDFGTYYCQHLWSIPWTFGGGTRLEIK",Bin 2,2
"TM-11: anti-TMEM106B monoclonal antibody; CDR-H1-3 SEQ ID NO: 12, 45, 88; CDR-L1-3 SEQ ID NO: 129, 170, 193 (antibody, V domains shown) VH: QVQLKQSGPGQVQPSQSLSITCTVSGFSLSDYGVHWVRQSPGKGLEWLGVIWNNGNTDYNAAFISRLSINKDNSKSQVFFKMTSLQADDTAIYYCVRSLRPLHFDYWGQGTTVTVSS VL: DIVMTQSPSSLTMSVGQKVTMHCKSSQSLLNSNNLQNYLAWYQQKPGQSPTLLVYFASIRESGVPDRFIGSGSGTDFTLTISSVQAEDLADYFCQQHYNTPFTFGSGTKLEIR",Bin 2,2
"TM-76: anti-TMEM106B monoclonal antibody; VH SEQ ID NO: 481, VL SEQ ID NO: 516 (antibody, V domains shown, Variable Heavy Chain -- TM-76; Variable Light Chain -- TM-76) VH: QVTLKESGPGILQPSQTLSLTCSFSGFSLSTSGMGVSWIRKPSGKGLEWLAHIFWDDDKRYNLFLKSRLTVSKDTSSNQVFLMITSVDTTDTATYYCARMGRQRDYFDYWGQGTSLTVSS VL: QIILTQSPAIMSASLGEEITLTCSASLSISYVHWYQQKSGASPKLLIYGTSNLASGVPSRFSGSGSGTFYSLTISSVEAEDAADYYCHQWSIYRTFGGGTKLEMK",Bin 2,2
"TM-10: anti-TMEM106B monoclonal antibody; CDR-H1-3 SEQ ID NO: 11, 44, 87; CDR-L1-3 SEQ ID NO: 128, 169, 192 (antibody, V domains shown) VH: QVQLQQSGAELVKPGASVKISCKGSGYAFSSYWMNWVKQRPGKGLEWIGQIYPGDGDTNYNGKFKGKATLTADKSSTTAYIHLSSLTSEDSAVYFCARWGHYDEAMDDWGQGTSVTVSS VL: DVVMTQTPLSLPVSLGDQASISCRSSQSLVHSNGKTYLHWYVQKPGQSPKLLIYKISNRFSGVPDRFSGSGSGTDFTLKISRVEAEDLGVYFCSQITHVPWTFGGGTKLESK",Bin 2,2
"TM-9: anti-TMEM106B monoclonal antibody; CDR-H1-3 SEQ ID NO: 10, 43, 86; CDR-L1-3 SEQ ID NO: 122, 168, 186 (antibody, V domains shown) VH: EVQLVESGGDLVKPGGSLKLSCVASGFTFSGYGMSWVRQTPDKRLEWVATISSGSFYIYYPDSVKGRLTVSRDNAKNTLYLQMSSLKSEDTAIYYCARQNFYYGCEDYWGQGTTLTVSS VL: DIVMTQAAFSNPVTLGTSASISCRSSKSLLHSNGITYLYWYLQKPGQSPQLLIYQMSNLASGVPNRFSSSGSGTDFTLRISRVEAEDVGVYYCAQNLELPWTFGGGTKLEIK",Bin 2,2
"TM-21: anti-TMEM106B monoclonal antibody; CDR-H1-3 SEQ ID NO: 18, 54, 97; CDR-L1-3 SEQ ID NO: 137, 168, 201 (antibody, V domains shown) VH: EVQLVESGGGLVKPGGSLKLSCAASGFTFSNYAMSWVRETPEKRLEWVAFISDGGGYIYYADNVKDRFTISRDNAKNNLYLQMRHLKSEDTAMYYCARDGGTGFTYWGQGTLVTVSV VL: DIVMTQAAFSNPVTLGTSASISCRSSKSLLHSNGITYLFWYLQKPGQSPQLLIYQMSNLASGVPDRFSSSGSGTDFTLRISRVEAEDVGVYYCVQNLELPYTFGGGTKLEIK",Bin 2,2
"TM-18: anti-TMEM106B monoclonal antibody; CDR-H1-3 SEQ ID NO: 5, 52, 95; CDR-L1-3 SEQ ID NO: 135, 174, 199 (antibody, V domains shown) VH: EVRLQQSGPELVKPGASVKISCKTSGYTFTDYYMNWVKQSHGKSLEWIVNINPNNGDAFYNQKFKGKATLTVDKSSNTAYLDLRSLTSEDSAVYYCAREGQLRLRRVYAMDYWGQGTSVTVSS VL: DIVLAQSPASLAVSLGQRATISCRASKSVSISVYTYVHWYQQKPGQPPKLLIYLASNLESGVPARFSGSGSGTDFTLNIHPVEEEDAATYYCQHSRELPYTFGGGTKLEIK",Bin 2,2
